This is an account of results in US20090227510A1.

The assay addresses HLA-A2 (human). Kind of assay: HLA-A2 stabilization assay.

With EIWTFSYKV [J65, variant of FBP epitope E39 (H5→F, Y7→T)], the HLA-A2 stabilizing ability relative to E39 is 0.5 fold of E39.
